The values that follow are results of earlier work, collected in publication PMC4692369.

The data set deals with Tyr57 (UniProt position 57, QIAAFYRQGLG). Put plainly: UV-vis. The following applies: apo enzyme.

For the substance “Ketosteroid isomerase D40N (earlier construct without LVPR) (Pseudomonas putida; D40N)”, the pKa (usually the pH at which an ionisable group is half protonated) was 6.3.
